Reference: PMC5542595

Target: Leptospira interrogans heme oxygenase, wild type, ferric heme complex (Leptospira interrogans)
Experiment: cross-linking

**Q.** “Leptospira interrogans ferredoxin-NADP+ reductase, wild type (enzyme)” was tested. Which stoichiometry N did it give?
**A.** The stoichiometry N was 1.
